From patent US20080058272A1 (published 2008) come the findings set out here.

Where two headings read alike, the source gives them in different places.

Assay [1] has as its target T1, HLA-A2 (human, UniProt P04439 25-302 at identity 0.94)).
T1 chain: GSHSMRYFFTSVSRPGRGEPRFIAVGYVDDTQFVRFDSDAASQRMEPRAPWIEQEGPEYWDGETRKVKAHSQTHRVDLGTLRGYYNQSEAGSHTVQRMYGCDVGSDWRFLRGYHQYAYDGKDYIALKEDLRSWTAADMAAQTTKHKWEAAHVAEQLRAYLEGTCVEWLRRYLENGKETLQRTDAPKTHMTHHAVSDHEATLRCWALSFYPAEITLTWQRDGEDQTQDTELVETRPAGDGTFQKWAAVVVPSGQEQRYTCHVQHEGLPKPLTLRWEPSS
Kind of assay: competitive binding assay (flow cytometry). In general terms: A flow cytometer gives signals particle by particle.

Assay [2] deals with T1, HLA-A2. In words: competitive binding assay (flow cytometry).

One may read the IC50 as the concentration needed to halve the response being measured. Low readings indicate higher potency, high ones lower potency. Take ALVCYGPGI [FAPα^463-471]: the IC50 in the assay with HLA-A2 [1] and with HLA-A2 [2] was 4.7 µM in each case. Regarding LLYAVYRKL [FAPα^584-592], the IC50 in the assay with HLA-A2 [1] was 13.3 µM. For KILEENKEL [FAPα^486-494], the IC50 with HLA-A2 [1] and in the assay with HLA-A2 [2] was 33.8 µM each time.

In the case of YLASKEGMV [FAPα^560-568], the concentration for half-maximal inhibition (IC50) with HLA-A2 [1] is 15.3 µM. On the same count and under the same terms, the value for YLESDYSKL [FAPα^113-121] was 8 µM; that for GLSPDRQFV [FAPα^104-112] was 9.1 µM.

Regarding GLFKCGIAV [FAPα^639-647], the concentration for half-maximal inhibition (IC50) with HLA-A2 [1] stood at 5.6 µM. This IC50 is about 1.6-fold lower than that of the molecule before.
